Measured values reported in US20250312499A1, “KISSPEPTIN RECEPTOR (KISS1R) TARGETED THERAPEUTICS AND USES THEREOF” (priority 2024, published 2025).
Numbered stars: 1 amine (or outer) side, 2 acyl side, 3 side chain; on linkers, the order of the positions; unused ones are H or OH. Square brackets hold non-standard residues; d marks the D form. * marks the point of attachment. X2 = 4‑amino‑1‑((3-fluoro-4-methylbenzyl)glycyl)piperidine‑4‑carboxylic acid, Cc1ccc(CN(CC(=O)N2CCC(N[*:1])(C(=O)[*:2])CC2)[*:3])cc1F; X7 = 4‑amino‑1‑(N-methylcarbamimidoyl)piperidine‑4‑carboxylic acid, CNC(=N)N1CCC(N[*:1])(C(=O)[*:2])CC1; DOTA = O=C(O)CN1CCN(CC(=O)O)CCN(CC(=O)*)CCN(CC(=O)O)CC1; Api(1-amidino) = N=C(N)N1CCC(N)(C(=O)O)CC1; Phe(3-F) = N[C@@H](Cc1cccc(F)c1)C(=O)O; Phe(4-I) = N[C@@H](Cc1ccc(I)cc1)C(=O)O; d2Nal = N[C@H](Cc1ccc2ccccc2c1)C(=O)O; 4Pal = N[C@@H](Cc1ccncc1)C(=O)O; d(β3hD) = NC(CC(=O)O)CC(=O)O; 4Amb = NCc1ccc(C(=O)O)cc1; Octanoyl = CCCCCCCC(=O)*; Ahx = NCCCCCC(=O)O; azaGly = NNC(=O)O; βAla = NCCC(=O)O; Sar = CNCC(=O)O

B1: Compound 12 (peptide)
peptide: {DOTA-Ahx}-F[Sar]L[X2]W-NH2
SMILES: Cc1ccc(CNCC(=O)N2CCC(NC(=O)[C@H](CC(C)C)NC(=O)CN(C)C(=O)[C@H](Cc3ccccc3)NC(=O)CCCCCNC(=O)CN3CCN(CC(=O)O)CCN(CC(=O)O)CCN(CC(=O)O)CC3)(C(=O)N[C@@H](Cc3c[nH]c4ccccc34)C(N)=O)CC2)cc1F
B2: Compound 260 (peptide)
peptide: {DOTA-4Amb}-F[azaGly][dL][X2]W-NH2
SMILES: Cc1ccc(CNCC(=O)N2CCC(NC(=O)[C@@H](CC(C)C)NC(=O)NNC(=O)[C@H](Cc3ccccc3)NC(=O)c3ccc(CNC(=O)CN4CCN(CC(=O)O)CCN(CC(=O)O)CCN(CC(=O)O)CC4)cc3)(C(=O)N[C@@H](Cc3c[nH]c4ccccc34)C(N)=O)CC2)cc1F
B3: Compound 230 (peptide)
peptide: {DOTA}-[d(β3hD)]NT[Phe(3-F)][azaGly]L[X2][4Pal]-NH2
B4: Compound 5 (peptide)
peptide: {DOTA-Ahx}-F[azaGly]L[Api(1-amidino)]W-NH2
SMILES: CC(C)C[C@H](NC(=O)NNC(=O)[C@H](Cc1ccccc1)NC(=O)CCCCCNC(=O)CN1CCN(CC(=O)O)CCN(CC(=O)O)CCN(CC(=O)O)CC1)C(=O)NC1(C(=O)N[C@@H](Cc2c[nH]c3ccccc23)C(N)=O)CCN(C(=N)N)CC1
B5: Compound 18 (peptide)
peptide: {DOTA}-[dN][dN]F[azaGly]L[X2]W-NH2
SMILES: Cc1ccc(CNCC(=O)N2CCC(NC(=O)[C@H](CC(C)C)NC(=O)NNC(=O)[C@H](Cc3ccccc3)NC(=O)[C@@H](CC(N)=O)NC(=O)[C@@H](CC(N)=O)NC(=O)CN3CCN(CC(=O)O)CCN(CC(=O)O)CCN(CC(=O)O)CC3)(C(=O)N[C@@H](Cc3c[nH]c4ccccc34)C(N)=O)CC2)cc1F
B6: Compound 171 (peptide)
peptide: {DOTA}-ENT[Phe(3-F)][azaGly]L[X2][4Pal]-NH2
SMILES: Cc1ccc(CNCC(=O)N2CCC(NC(=O)[C@H](CC(C)C)NC(=O)NNC(=O)[C@H](Cc3cccc(F)c3)NC(=O)[C@@H](NC(=O)[C@H](CC(N)=O)NC(=O)[C@H](CCC(=O)O)NC(=O)CN3CCN(CC(=O)O)CCN(CC(=O)O)CCN(CC(=O)O)CC3)[C@@H](C)O)(C(=O)N[C@@H](Cc3ccncc3)C(N)=O)CC2)cc1F
B7: Compound 121 (peptide)
peptide: {DOTA}-[dY][Phe(4-I)]NT[Phe(4-I)][azaGly]L[Api(1-amidino)][4Pal]-NH2
SMILES: CC(C)C[C@H](NC(=O)NNC(=O)[C@H](Cc1ccc(I)cc1)NC(=O)[C@@H](NC(=O)[C@H](CC(N)=O)NC(=O)[C@H](Cc1ccc(I)cc1)NC(=O)[C@@H](Cc1ccc(O)cc1)NC(=O)CN1CCN(CC(=O)O)CCN(CC(=O)O)CCN(CC(=O)O)CC1)[C@@H](C)O)C(=O)NC1(C(=O)N[C@@H](Cc2ccncc2)C(N)=O)CCN(C(=N)N)CC1
B8: Compound 19 (peptide)
peptide: {DOTA}-[dK][dN]F[azaGly]L[X2]W-NH2
SMILES: Cc1ccc(CNCC(=O)N2CCC(NC(=O)[C@H](CC(C)C)NC(=O)NNC(=O)[C@H](Cc3ccccc3)NC(=O)[C@@H](CC(N)=O)NC(=O)[C@@H](CCCCN)NC(=O)CN3CCN(CC(=O)O)CCN(CC(=O)O)CCN(CC(=O)O)CC3)(C(=O)N[C@@H](Cc3c[nH]c4ccccc34)C(N)=O)CC2)cc1F
B9: Compound 14 (peptide)
peptide: {DOTA}-[βAla][dN][dN][dN][dN][dN]F[azaGly]L[X2]W-NH2
SMILES: Cc1ccc(CNCC(=O)N2CCC(NC(=O)[C@H](CC(C)C)NC(=O)NNC(=O)[C@H](Cc3ccccc3)NC(=O)[C@@H](CC(N)=O)NC(=O)[C@@H](CC(N)=O)NC(=O)[C@@H](CC(N)=O)NC(=O)[C@@H](CC(N)=O)NC(=O)[C@@H](CC(N)=O)NC(=O)CCNC(=O)CN3CCN(CC(=O)O)CCN(CC(=O)O)CCN(CC(=O)O)CC3)(C(=O)N[C@@H](Cc3c[nH]c4ccccc34)C(N)=O)CC2)cc1F
B10: Compound 374 (peptide)
peptide: {DOTA-Ahx}-[dY][d2Nal]NTF[azaGly]L[4‑amino‑1‑(octylglycyl)piperidine‑4‑carboxylic acid][dW]-NH2
B11: Compound 7 (peptide)
peptide: {DOTA-Ahx}-F[azaGly]L[4‑amino‑1‑(4-(p-tolyl)butanoyl)piperidine‑4‑carboxylic acid]W-NH2
B12: Compound 226 (peptide)
peptide: Octanoyl-K(DOTA)NTF[azaGly]L[Api(1-amidino)][4Pal]-NH2
SMILES: CCCCCCCC(=O)N[C@@H](CCCCNC(=O)CN1CCN(CC(=O)O)CCN(CC(=O)O)CCN(CC(=O)O)CC1)C(=O)N[C@@H](CC(N)=O)C(=O)N[C@H](C(=O)N[C@@H](Cc1ccccc1)C(=O)NNC(=O)N[C@@H](CC(C)C)C(=O)NC1(C(=O)N[C@@H](Cc2ccncc2)C(N)=O)CCN(C(=N)N)CC1)[C@@H](C)O
B13: Compound 231 (peptide)
peptide: {DOTA-trans‑4‑(aminomethyl)cyclohexane‑1‑carboxylic acid}-[D‑3‑aminopentanedioic acid]NT[Phe(3-F)][azaGly]L[X2][4Pal]-NH2
B14: Compound 13 (peptide)
peptide: {DOTA-Ahx}-[dA][dA][dA][dA][dA]F[azaGly]L[X2]W-NH2
SMILES: Cc1ccc(CNCC(=O)N2CCC(NC(=O)[C@H](CC(C)C)NC(=O)NNC(=O)[C@H](Cc3ccccc3)NC(=O)[C@@H](C)NC(=O)[C@@H](C)NC(=O)[C@@H](C)NC(=O)[C@@H](C)NC(=O)[C@@H](C)NC(=O)CCCCCNC(=O)CN3CCN(CC(=O)O)CCN(CC(=O)O)CCN(CC(=O)O)CC3)(C(=O)N[C@@H](Cc3c[nH]c4ccccc34)C(N)=O)CC2)cc1F
B15: Compound 189 (peptide)
peptide: {DOTA-Ahx}-F[azaGly]L[X7]W-NH2
SMILES: CNC(=N)N1CCC(NC(=O)[C@H](CC(C)C)NC(=O)NNC(=O)[C@H](Cc2ccccc2)NC(=O)CCCCCNC(=O)CN2CCN(CC(=O)O)CCN(CC(=O)O)CCN(CC(=O)O)CC2)(C(=O)N[C@@H](Cc2c[nH]c3ccccc23)C(N)=O)CC1
B16: Compound 21 (peptide)
peptide: {DOTA}-[dN]F[azaGly]L[X2]W-NH2
SMILES: Cc1ccc(CNCC(=O)N2CCC(NC(=O)[C@H](CC(C)C)NC(=O)NNC(=O)[C@H](Cc3ccccc3)NC(=O)[C@@H](CC(N)=O)NC(=O)CN3CCN(CC(=O)O)CCN(CC(=O)O)CCN(CC(=O)O)CC3)(C(=O)N[C@@H](Cc3c[nH]c4ccccc34)C(N)=O)CC2)cc1F

Legend:
[1] = molecular target: human kisspeptin receptor (KISS1R) (human), Q969F8; experiment: radioligand competition, hKISS1R membranes; legend: B is 10-100 nM
[2] = molecular target: human kisspeptin receptor (KISS1R) (human) (UniProt Q969F8); experiment: radioligand competition, hKISS1R membranes; legend: A is <10 nM
[3] = molecular target: human kisspeptin receptor (KISS1R) (human), Q969F8; experiment: radioligand competition, hKISS1R membranes; legend: C is >100 nM

Chain of human kisspeptin receptor (KISS1R) (human), Q969F8 (Q969F8 whole entry): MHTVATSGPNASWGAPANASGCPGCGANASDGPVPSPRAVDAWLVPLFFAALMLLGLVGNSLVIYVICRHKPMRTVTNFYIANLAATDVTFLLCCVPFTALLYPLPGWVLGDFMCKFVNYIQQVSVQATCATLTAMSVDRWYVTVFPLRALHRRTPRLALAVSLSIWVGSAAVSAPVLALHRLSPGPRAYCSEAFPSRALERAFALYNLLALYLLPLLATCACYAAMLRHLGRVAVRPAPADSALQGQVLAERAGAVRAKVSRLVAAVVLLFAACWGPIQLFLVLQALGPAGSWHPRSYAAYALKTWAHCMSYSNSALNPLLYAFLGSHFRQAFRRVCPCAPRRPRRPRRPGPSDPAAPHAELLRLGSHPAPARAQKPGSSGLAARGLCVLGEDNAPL
Chain of human kisspeptin receptor (KISS1R) (human) (Q969F8 whole entry): as above

Row | Binder | Ki [1] | also measured
1 | B1 | 10 to 100 nM | –
2 | B2 | 10 to 100 nM | –
3 | B3 | 10 to 100 nM | –
4 | B4 | 10 to 100 nM | –
5 | B5 | 10 to 100 nM | –
6 | B6 | 10 to 100 nM | –
7 | B7 | 10 to 100 nM | –
8 | B8 | 10 to 100 nM | –
9 | B9 | 10 to 100 nM | –
10 | B10 | – | Ki [2]: < 10 nM
11 | B11 | 10 to 100 nM | –
12 | B12 | 10 to 100 nM | –
13 | B13 | 10 to 100 nM | –
14 | B14 | 10 to 100 nM | –
15 | B15 | – | Ki [3]: > 100 nM
16 | B16 | 10 to 100 nM | –
